From patent US20170052184A1

Tests used:
[1] = target: Mut1T110N biotin labeled HCV core peptide (hepatitis C virus); assay: EIA; Ab 1.953 ng/mL captured on anti-mouse Fc; bt-peptide 500 ng/mL
[2] = target: 92-133 biotin labeled HCV core peptide (hepatitis C virus) (UniProt P26664); assay: as above
[3] = target: C113T109N biotin labeled HCV core peptide (hepatitis C virus); assay: as above
[4] = target: Mut6T110S biotin labeled HCV core peptide (hepatitis C virus); assay: as above
[5] = target: Mut1T110N biotin labeled HCV core peptide (hepatitis C virus); assay: EIA; Ab 7.813 ng/mL captured on anti-mouse Fc; bt-peptide 500 ng/mL
[6] = target: 92-133 biotin labeled HCV core peptide (hepatitis C virus) (UniProt P26664); assay: as above
[7] = target: C113T109N biotin labeled HCV core peptide (hepatitis C virus); assay: as above
[8] = target: Mut6T110S biotin labeled HCV core peptide (hepatitis C virus); assay: as above
[9] = target: Mut1T110N biotin labeled HCV core peptide (hepatitis C virus); assay: EIA; Ab 125 ng/mL captured on anti-mouse Fc; bt-peptide 500 ng/mL
[10] = target: 92-133 biotin labeled HCV core peptide (hepatitis C virus) (UniProt P26664); assay: as above
[11] = target: C113T109N biotin labeled HCV core peptide (hepatitis C virus); assay: as above
[12] = target: Mut6T110S biotin labeled HCV core peptide (hepatitis C virus); assay: as above
[13] = target: Mut1T110N biotin labeled HCV core peptide (hepatitis C virus); assay: EIA; Ab 62.5 ng/mL captured on anti-mouse Fc; bt-peptide 500 ng/mL
[14] = target: 92-133 biotin labeled HCV core peptide (hepatitis C virus) (UniProt P26664); assay: as above
[15] = target: C113T109N biotin labeled HCV core peptide (hepatitis C virus); assay: as above
[16] = target: Mut6T110S biotin labeled HCV core peptide (hepatitis C virus); assay: as above
[17] = target: Mut1T110N biotin labeled HCV core peptide (hepatitis C virus); assay: EIA; Ab 0.977 ng/mL captured on anti-mouse Fc; bt-peptide 500 ng/mL
[18] = target: 92-133 biotin labeled HCV core peptide (hepatitis C virus) (UniProt P26664); assay: as above
[19] = target: C113T109N biotin labeled HCV core peptide (hepatitis C virus); assay: as above
[20] = target: Mut6T110S biotin labeled HCV core peptide (hepatitis C virus); assay: as above
[21] = target: Mut1T110N biotin labeled HCV core peptide (hepatitis C virus); assay: EIA; Ab 31.25 ng/mL captured on anti-mouse Fc; bt-peptide 500 ng/mL
[22] = target: 92-133 biotin labeled HCV core peptide (hepatitis C virus) (UniProt P26664); assay: as above
[23] = target: C113T109N biotin labeled HCV core peptide (hepatitis C virus); assay: as above
[24] = target: Mut6T110S biotin labeled HCV core peptide (hepatitis C virus); assay: as above
[25] = target: Mut1T110N biotin labeled HCV core peptide (hepatitis C virus); assay: EIA; Ab 15.625 ng/mL captured on anti-mouse Fc; bt-peptide 500 ng/mL
[26] = target: 92-133 biotin labeled HCV core peptide (hepatitis C virus) (UniProt P26664); assay: as above
[27] = target: C113T109N biotin labeled HCV core peptide (hepatitis C virus); assay: as above
[28] = target: Mut6T110S biotin labeled HCV core peptide (hepatitis C virus); assay: as above
[29] = target: Mut1T110N biotin labeled HCV core peptide (hepatitis C virus); assay: EIA; Ab 3.906 ng/mL captured on anti-mouse Fc; bt-peptide 500 ng/mL
[30] = target: 92-133 biotin labeled HCV core peptide (hepatitis C virus) (UniProt P26664); assay: as above
[31] = target: C113T109N biotin labeled HCV core peptide (hepatitis C virus); assay: as above
[32] = target: Mut6T110S biotin labeled HCV core peptide (hepatitis C virus); assay: as above

Q: How did the signal at 492 nm [1] turn out when HCV C11-3 monoclonal antibody was run?
A: The signal at 492 nm was 0.0854 OD 492 nm.

Q: And the signal at 492 nm [2]?
A: Its signal at 492 nm is 0.134 OD 492 nm.

Q: And the signal at 492 nm [3]?
A: Its signal at 492 nm is 0.114 OD 492 nm.

Q: What about the signal at 492 nm [4] of the same substance?
A: The signal at 492 nm was 0.0964 OD 492 nm.

Q: What about the signal at 492 nm [5] of the same substance?
A: Its signal at 492 nm is 0.0966 OD 492 nm.

Q: And the signal at 492 nm [6]?
A: The signal at 492 nm was 0.562 OD 492 nm.

Q: And the signal at 492 nm [7]?
A: Its signal at 492 nm is 0.119 OD 492 nm.

Q: What about the signal at 492 nm [8] of the same substance?
A: The signal at 492 nm was 0.344 OD 492 nm.

Q: And the signal at 492 nm [9]?
A: The signal at 492 nm was 0.127 OD 492 nm.

Q: What about the signal at 492 nm [10] of the same substance?
A: Its signal at 492 nm is 1.83 OD 492 nm.

Q: And the signal at 492 nm [11]?
A: Its signal at 492 nm is 0.147 OD 492 nm.

Q: What about the signal at 492 nm [12] of the same substance?
A: Its signal at 492 nm is 2.02 OD 492 nm.

Q: And the signal at 492 nm [13]?
A: Its signal at 492 nm is 0.155 OD 492 nm.

Q: And the signal at 492 nm [14]?
A: Its signal at 492 nm is 1.92 OD 492 nm.

Q: And the signal at 492 nm [15]?
A: The signal at 492 nm was 0.202 OD 492 nm.

Q: And the signal at 492 nm [16]?
A: The signal at 492 nm was 2.11 OD 492 nm.

Q: And the signal at 492 nm [17]?
A: Its signal at 492 nm is 0.0755 OD 492 nm.

Q: And the signal at 492 nm [18]?
A: Its signal at 492 nm is 0.116 OD 492 nm.

Q: And the signal at 492 nm [19]?
A: Its signal at 492 nm is 0.104 OD 492 nm.

Q: And the signal at 492 nm [20]?
A: The signal at 492 nm was 0.101 OD 492 nm.

Q: What about the signal at 492 nm [21] of the same substance?
A: Its signal at 492 nm is 0.107 OD 492 nm.

Q: And the signal at 492 nm [22]?
A: Its signal at 492 nm is 1.55 OD 492 nm.

Q: And the signal at 492 nm [23]?
A: Its signal at 492 nm is 0.16 OD 492 nm.

Q: And the signal at 492 nm [24]?
A: The signal at 492 nm was 1.54 OD 492 nm.

Q: And the signal at 492 nm [25]?
A: The signal at 492 nm was 0.11 OD 492 nm.

Q: And the signal at 492 nm [26]?
A: Its signal at 492 nm is 1.01 OD 492 nm.

Q: And the signal at 492 nm [27]?
A: Its signal at 492 nm is 0.116 OD 492 nm.

Q: What about the signal at 492 nm [28] of the same substance?
A: Its signal at 492 nm is 0.807 OD 492 nm.

Q: And the signal at 492 nm [29]?
A: The signal at 492 nm was 0.079 OD 492 nm.

Q: What about the signal at 492 nm [30] of the same substance?
A: Its signal at 492 nm is 0.183 OD 492 nm.

Q: What about the signal at 492 nm [31] of the same substance?
A: Its signal at 492 nm is 0.0833 OD 492 nm.

Q: What about the signal at 492 nm [32] of the same substance?
A: Its signal at 492 nm is 0.227 OD 492 nm.
